Experiment: soluble on expression in E. coli; label from the status in PepcDB or PDB records

Q: Which “soluble on expression in E. coli” value does the source give for “MSLRKPNEKTMKTKFCRTAVYCLCCFMFIQPITGSQVNDTHEGVLHIDKQKTRKVSRVQYGFHYEEIGMIGEGALHAELVRNRSFEEATPPADLAVKNGLYQNVPNPRGKNKDVFHVDPLIGWNTYPLSYTPIFISRTEENPLNKENKYSMLVNVTEDIANNPEAMILNRGYYGMNLRKEVSYHLSMYIKSKNYTALLQVMLVDEQGKPVSTQLVLDVKGKEWTKLTGTLKPDKDVKRGMLAIQPLGKGQFQLDVVSLFPSDTWDNGKSVFRADIMQNLKEYAPDFIRFPGGCIVHGVNEATMYHWKKTIGPIENRPGQWSKWAPYYRTDGIGYHEFYELCEYLGADAMYVIPTGMICTGWVKQSSPWNFIQPDVDLDAYIQDALDAIEYAIGPETSKWGALRVKNGHPKPFPLKYIEIGNEDFGPVYWERYEKIYQALHRQYPDLIYIANSIIGKENDDKRIDIAKFVNPKNVKVFDEHHYQPVEWACKQHYRFDNYERGIADLFVGELGIDGKYPYNLLASGAVRMSLERNGDLNPLLAERPVMRHWDFSEHRQLHSMLINGVDCSIRTSFYYLSKMFRDHTFDVCLDAGIQGMKGLQNVFVTMGYDSESKEYILKLINLRKQEVVLQTAVKGFGKKIQAQKITLSLEPGKNNTPEMPDAVKPVQSTVTLDLNKDLQLEASSMIVYRFKEGHHHHHH” here?
A: Its value is “soluble”.

Q: With “VGTRSKSRTRQLKQSNGCTATTSGASDRRRRARRRTAPAWLREDEWLRHHLPHPPRQLSRCLHRRRRSACHHRYSRRTPKGGLPMTSSLVPISEARAHLSRLVRESADDDVVLMNHGRPAAILISAERYESLMEELEDLRDRLSVHEREHVTMPLDKLGAELGVDIGRV” as the sequence, how does the “soluble on expression in E. coli” value read?
A: The value was “not soluble”.

Q: For “MGHHHHHHSHMKPSGEDQAALAAGPWEECFQAAVQLALRAGQIIRKALTEEKRVSTKTSAADLVTETDHLVEDLIISELRERFPSHRFIAEEAAASGAKCVLTHSPTWIIDPIDGTCNFVHRFPTVAVSIGFAVRQELEFGVIYHCTEERLYTGRRGRGAFCNGQRLRVSGETDLSKALVLTEIGPKRDPATLKLFLSNMERLLHAKAHGVRVIGSSTLALCHLASGAADAYYQFGLHCWDLAAATVIIREAGGIVIDTSGGPLDLMACRVVAASTREMAMLIAQALQTINYGRDDEK”, which “soluble on expression in E. coli” value is on record?
A: Its value is “not soluble”.

Q: Which “soluble on expression in E. coli” value does the source give for “MSAKEKFTSLSPAEFFKRNPELAGFPNPARALYQTVRELIENSLDATDVHGILPNIKITIDLIDDARQIYKVNVVDNGIGIPPQEVPNAFGRVLYSSKYVNRQTRGMYGLGVKAAVLYSQMHQDKPIEIETSPVNSKRIYTFKLKIDINKNEPIIVERGSVENTRGFHGTSVAISIPGDWPKAKSRIYEYIKRTYIITPYAEFIFKDPEGNVTYYPRLTNKIPKPPQEVKPHPYGVDREEIKILINNLKRDYTIKEFLVNEFQSIGDTTADKILELAGLKPNKKVKNLTEEEITRLVETFKKDEDFRSPSADSLSVIGEDLIELGLKKIFNPDFAASITRKPKAYQGHPFIVEAGVAFGGSIPVGEEPIVLRYANKIPLIYDEKSDVIWKVVEELDWKRYGIESDQYQMVVMVHLCSTKIPYKSAGKESIAEVENIEKEIKNALMEVARKLKQYLSEKRKEQEAKKKLLAYLKYIPEVSRSLATFLASGNKELVSKYQNEISEGLFKLISKKLDLINIEEYRKVYRVDSE” here?
A: Its value is “soluble”.

Q: With “MGSDKIHHHHHHMTNWLPDPSALASPLHSSLALAIAKAISEGKLPKGTQLPTHRKLAEELGLSVHTVSKAYESLRRQRLIDGQVGRGSYVLDLNTPDDQPFQLSSERGRNFDLSISRPAFSQRHAELFQQVLADLPQGLDPSYYLACRPNVGHDAHRAAGETWLRICGLDVPSERIIMTNGVSHGMSAALSALARPGDTVVSSRITHHLLVSGCSYLGLNLVGIDFDQDGMLPDALDRHCSENNAKVLFLLPSLANTTVEMIPEERRQALVQVARKHNLYIIENDAFGPVAEDRPVPVAALAPERTIYLTTFTKCTVSGLRAGYMAAPEHLLPALTGRIVVFGWMATPLMCEIATRWVLDGTALELALWQRRALAERYEIASQALQGHQWRGHPSALHLWLPLESGWTTSSFVAYARQLKVAVAPDAPFLTPKTPPPNAVRISLGSVQDLSRFKQAMELVGGMLSRPPEGVAPLAF” as the sequence, how does the “soluble on expression in E. coli” value read?
A: The value was “not soluble”.

Q: For “MIIYTTPTALILEEQGERVEFDRRNGKVLEKPEESLEILDQDVVLCGNVEFLIGKISFDEQHFLFFVVDSSVVACYRGTSAESSHSIRRIERVIAINVKSDGSVIKSQITPGSGTKLKQGTEKIMKFFAEKVTKAEPRPALLDDVLKLFNDSKDFYFCRSRDVTISSQKYFEKREAHTSEDSFFWNKRMVGNLGEAKISDKFTCPIMQGYVATSQLEITDQINAYLTITIISRRSTRRAGARYLRRGIDEASNVANFVETELILNIFEHELSFVQCRGSIPVFWSQRGFKYRPPLIINRSVEETHGVFTEHFKRLKAHYDTPLVAVSLVDQRGRELPLAQRFLEHCVKADDNDVTFFSFDLHQHCRGLNFQKLQTLISSMEETLKTIGFCWVDKTGEVVQSQKGVVRTNCIDCLDRTNLVQGQISLFVVLQQAQRLGIFGPLCEPPEVLVQTMQTMWADNGDVISTQYAGTAALKGDVTRNGERKLMGVMKDGYNSASRYYLTHTKDAQRQKAINIVTGQTEADENAEEEENEKEEEENISRMVTETIQFLVPTQQTVIAGWGLINAFQSSDEIDTVVILTRSNLYIVTYEIDGEKMTDVQIVALEDINTIQTGTSGNNRQCARLETLEGVFIWRPSTVRLFNNTAIRLKSLEEANEYISSVAEQIQVGRNMLTGAEGSVVPVAKITIPQMSVHRKSMAAMGALFGKIKRVGKPSSLSKSASTISTAQLPETDGNESDASQKSDHLMTKILKMSQFKSDSPQPEPFSSLLPAISECQTKISLL”, which “soluble on expression in E. coli” value is on record?
A: Its value is “not soluble”.

Q: For “HMSNPLGELVKALEKLSFKPSDVRIYSLLLERGGMRVSEIARELDLSARFVRDRLKVLLKRGFVRREIVEKGWVGYIYSAEKPEKVLKEFKSSILGEIERIEKMFTDGS”, which “soluble on expression in E. coli” value is on record?
A: The value was “soluble”.

Q: Which “soluble on expression in E. coli” value does the source give for “MGHHHHHHSHVLPIYAYGHAVGKSVTGGYVYRGCESPNLNGLYIFGDFMSGRLMALQEDRKNKKWKKQDLCLGSTTSCAFPGLISTHSKFIISFAEDEAGELYFLATSYPSAYAPRGSIYKFVDPSRRAPPGKCKYKPVPVRTKSKRIPFRPLAKTVLDLLKEQSEKAARKSSSATLASGPAQGLSEKGSSKKLASPTSSKNTLRGPGTKKKARVGPHVRQGKRRKSLKSHSGRMRPSAEQKRAGRSLP” here?
A: The value was “not soluble”.

Q: With “MGSDKIHHHHHHMNPQLLRVTNRIIERSRETRSAYLARIEQAKTSTVHRSQLACGNLAHGFAACQPEDKASLKSMLRNNIAIITSYNDMLSAHQPYEHYPEIIRKALHEANAVGQVAGGVPAMCDGVTQGQDGMELSLLSREVIAMSAAVGLSHNMFDGALFLGVCDKIVPGLTMAALSFGHLPAVFVPSGPMASGLPNKEKVRIRQLYAEGKVDRMALLESEAASYHAPGTCTFYGTANTNQMVVEFMGMQLPGSSFVHPDSPLRDALTAAAARQVTRMTGNGNEWMPIGKMIDEKVVVNGIVALLATGGSTNHTMHLVAMARAAGIQINWDDFSDLSDVVPLMARLYPNGPADINHFQAAGGVPVLVRELLKAGLLHEDVNTVAGFGLSRYTLEPWLNNGELDWREGAEKSLDSNVIASFEQPFSHHGGTKVLSGNLGRAVMKTSAVPVENQVIEAPAVVFESQHDVMPAFEAGLLDRDCVVVVRHQGPKANGMPELHKLMPPLGVLLDRCFKIALVTDGRLSGASGKVPSAIHVTPEAYDGGLLAKVRDGDIIRVNGQTGELTLLVDEAELAAREPHIPDLSASRVGTGRELFSALREKLSGAEQGATCITF” as the sequence, how does the “soluble on expression in E. coli” value read?
A: The value was “not soluble”.

Q: Which “soluble on expression in E. coli” value does the source give for “MGSDKIHHHHHHMTVLHSPEPDIDPAILLEAADWLVLLQSGEATERDRMALAHWRERNPAHEAAWRRAENMLSTFDQVPPKLGHDTFSHLGNPGRRQMLRLGLLALAMPAAWITWRHSPWQEWVADLRTATGEQKLIDLNDGTHLVLNTTSAANVAFTTAERRLILLAGEILVTTGRDPSPVSRPFIVQTAHGSLRALGTRFTVRHFDDRTQVAVLEGAVEVHPAVSIQTTVLRAGEQMTFTGLDMQPVRPVEASTTLWEHGMLLARDMHLGELIAELNRYHRGVLRCDPSVASLAISGAFPVTDIPASLALLETTLPIRISSTTSWWITVQAR” here?
A: The value was “not soluble”.

Q: Which “soluble on expression in E. coli” value does the source give for “MAALRYRRFLKLCEEWPVDETKRGRDLGAYLRQRVAQAFREGENTQIAEPEACDQMYESLARLHSNYYKHKYPRPRDTSFSGLSVEEYKLILSTDTLEEFQEMNKSMWKKLQEKFAPTRPEEKHKAWTRVLSRPRT” here?
A: Its value is “soluble”.

Q: Which “soluble on expression in E. coli” value does the source give for “MAHHHHHHMRVFVLVAVRSGDGGVATYPPSVWHLQQCVRARSASCCHATSGGYLWTRDALFRALRRTHVDGAPASVLENAGASQRAKAAAPPCFYFFSALLDVGNNEEDVDLVALLLMELCVAWPNAIAAHMEVCRVCRGELSPAHASSPLAATLGEGETDEPSWQLEHFTREEALLVLLSDEIEATAATQDDFLTRWGVHNAWDHHRALQGRSWWVSGGIVAVLPSEAATRLVEPFLMLELSRMENGCPQLSRHPASCRDSSQTLEEALTHAILERELSHSVRAYLRNEVEGRIESRRLHRMTTVVPPAMALFLRGAPSSVLHECLLYHTVDCPLFPVEGGGCDAAQSSTDRATGLVAPAASPTAFLRPVKSGLSSTDLLERQRLVARDETSRLTELFCEYDLLLSGDGYVRVPLAPVSRYVFTQLLCQSELPSALMLALMRRHSDVTRRAGDMGHRIDPAAVSSRLPPPTEEEVVLGIKVTWAVTRWTAALQRGAAAAPPVGLPMWNEEQSLRKDKLCGWIRERMRKAKREAAELYSLEDAADTRATGREEDGVASTVSALPVASGDTADPLRRCRGAALEQLERRLFAPFPSSYRGSSTEWLGQALRDVAREQRHAASNMAQRDDVRASYAGPAPAARRAASPNVLDNSSSASDSDGTSDDGSEGAGGVGTPTRQETESLLAQLTELEVVLQNELASRTAIPLACGGDSRTTDSRLGVGDAVTGDQEMDVTSWLTAADMQQVTRNELFLHHVQLLESEMEQDQ” here?
A: Its value is “not soluble”.

Q: With “ARKRAAGGEPRGRELRSQKSKAKSKARREEEEEDAFEDEKPPKKSLLSKVSQGKRKRGCSHPGGSADGPAKKKVAKVTVKSENLKVIKDEALSDGDDLRDFPSDLKKAHHLKRGATMNEDSNEEEEESENDWEEVEELSEPVLGDVRESTAFSRSLLPVKPVEIEIETPEQAKTRERSEKIKLEFETYLRRAMKRFNKGVHEDTHKVHLLCLLANGFYRNNICSQPDLHAIGLSIIPARFTRVLPRDVDTYYLSNLVKWFIGTFTVNAELSASEQDNLQTTLERRFAIYSARDDEELVHIFLLILRALQLLTRLVLSLQPIPLKSATAKGKKPSKERLTADPGGSSETSSQVLENHTKPKTSKGTKQEETFAKGTCRPSAKGKRNKGGRKKRSKPSSSEEDEGPGDKQEKATQRRPHGRERRVASRVSYKEESGSDEAGSGSDFELSSGEASDPSDEDSEPGPPKQRKAPAPQRTKAGSKSASRTHRGSHRKDPSLPVASSSSSSSKRGKKMCSDGEKAEKRSIAGIDQWLEVFCEQEEKWVCVDCVHGVVGQPLTCYKYATKPMTYVVGIDSDGWVRDVTQRYDPVWMTVTRKCRVDAEWWAETLRPYQSPFMDREKKEDLEFQAKHMDQPLPTAIGLYKNHPLYALKRHLLKYEAIYPETAAILGYCRGEAVYSRDCVHTLHSRDTWLKKARVVRLGEVPYKMVKGFSNRARKARLAEPQLREENDLGLFGYWQTEEYQPPVAVDGKVPRNEFGNVYLFLPSMMPIGCVQLNLPNLHRVARKLDIDCVQAITGFDFHGGYSHPVTDGYIVCEEFKDVLLTAWENEQAVIERKEKEKKEKRALGNWKLLAKGLLIRERLKRRYGPKSEAAAPHTDAGGGLSSDEEEGTSSQAEAARILAASWPQNREDEEKQKLKGGPKKTKREKKAAASHLFPFEKL” as the sequence, how does the “soluble on expression in E. coli” value read?
A: The value was “not soluble”.

Source: the DeepSol protein solubility set
